Assay results taken from doi:10.1101/2022.09.29.510028 (bioRxiv, 2022).
Several values for one entry are separate records, joined by “and”; a condition that tells them apart may be missing. Equal entries are not always repeated. Where two headings read alike, the source gives them in different places.

B1: rpL5_(21-37) (residues 21-37 of ribosomal protein L5) (peptide)
peptide: RRRREGKTDYYARKRLV
B2: NPM1_(ΔIDR) (NTD and CTD linked without the IDR) (other)
chain: MEDSMDMDMSPLRPQNYLFGCELKADKDYHFKVDNDENEHQLSLRTVSLGAGAKDELHIVEAEAMNYEGSPIKVTLATLKMSVQPTVSLGGFEITPPVVLRLKCGSGPVHISGQHLVAVEPSSVEDIKAKMQASIEKGGSLPKVEAKFINYVKNCFRMTDQEAIQDLWQWRKSL
B3: NPM1_(120) (N-terminal domain, residues 1-120) (domain or fragment)
chain: MEDSMDMDMSPLRPQNYLFGCELKADKDYHFKVDNDENEHQLSLRTVSLGAGAKDELHIVEAEAMNYEGSPIKVTLATLKMSVQPTVSLGGFEITPPVVLRLKCGSGPVHISGQHLVAVE
B4: NPM1_(188) (NTD and the acidic regions of the IDR, residues 1-188) (domain or fragment)
chain: MEDSMDMDMSPLRPQNYLFGCELKADKDYHFKVDNDENEHQLSLRTVSLGAGAKDELHIVEAEAMNYEGSPIKVTLATLKMSVQPTVSLGGFEITPPVVLRLKCGSGPVHISGQHLVAVEEDAESEDEEEEDVKLLSISGKRSAPGGGSKVPQKKVKLAADEDDDDDDEEDDDEDDDDDDFDDEEAEE

Columns and labels:
Assay in all cases: native MS
[1] = target: Nucleophosmin 1, full-length (FL NPM1) (human)
[2] = target: B3
[3] = target: the molecule itself
[4] = target: the molecule itself; remark: listed apart in the source

Binder: B1
binding result [1]: binds | binding result [2]: binds

Binder: B2
stoichiometry N [3]: 10 and 5

Binder: B3
stoichiometry N [4]: ≥ 25 subunits

Binder: B4
stoichiometry N [3]: 5 and 10
